Laboratory results from a protein production outcome set (Wang et al. 2014).

Assay: label from the status in PepcDB records

Sequence | protein production
MSLTKVSSLGYPRLGENREWKKLIEAYWAGKVSKNDLFAGAKELRLDFLKKQLNAGLDLIPVGDFSLYDHILDLSVQFNIIPKRFAKEPIDIDLYFAIARGNKENVASSMKKWFNTNYHYIVPEWSKQRPKLNNNRLLDLYLEAREVVGDKAKPVITGPITYVALSTGVEDFTAAVKSLLPLYKQVFTELVKAGASYIQVDEPIFVTDEGKDYLQAAKAVYAYFAKEVPDAKFIFQTYFEGLIDSQVLSQLPVDAFGLDFVYGLEENLEAIKTGAFKGKEIFAGVIDGRNIWSSDFVKTSALLETIEEQSAALTIQPSCSLLHVPVTTKNETDLDPVLRNGLAFADEKLTEVKRLAEHLDGREDPAYDLHIAHFDALQAADFRNVKLEDLSRVATKRPSDFAKRRDIQQEKLHLPLLPTTTIGSFPQSREIRRTRLAWKRGDISDAEYKQFIQAEIERWIRIQEDLDLDVLVHGEFERVDMVEFFGQKLAGFTTTKFGWVQSYGSRAVKPPIIYGDVQHLEPITVEETVYAQSLTDRPVKGMLTGPITITNWSFERTDIPRDQLFNQIGLAIKDEIKLLENAGIAIIQVDEAALREGLPLRKSKQKAYLDDAVHAFHIATSSVKDETQIHTHMCYSKFDEIIDAIRALDADVISIETSRSHGDIIESFETAVYPLGIGLGVYDIHSPRVPTKEEVVANIERPLRQLSPTQFWVNPDCGLKTRQEPETIAALKVLVAATKEVRQKLGNEGHHHHHH | not failed
MSLTLRVLAPDQNVFDGSADEVILPSTTGQLGILPGHISLLTAIDVGVLRVRANGGWNSIALMGGFAEVDADEVTVLVNQAELGSTIDGNTAEADFQKATTVVDGLEGQPASPEKVKAQQQLNMARARMQASKSAD | failed
MSLTNHEQVLTDYLAAFIEELVRAGVKEAIISPGSRSTPLALMMAEHPILKIYVDVDERSAGFFALGLAKASKRPVVLLCTSGTAAANYFPAVAEANLSQIPLIVLTADRPHELRNVGAPQAMDQLHLYGSHVKDFTDMALPENSEEMLRYAKWHGSRAVDIAMKTPRGPVHLNFPLREPLVPILEPSPFTATGKKHHHVHIYYTHEVLDDSSIQKMVTECTGKKGVFVVGPIDKKELEQPMVDLAKKLGWPILADPLSGLRSYGALDEVVIDQYDAFLKEAEIMDKLTPEVVIRFGSMPVSKPLKNWLEQLSDIRFYVVDPGAAWKDPIKAVTDMIHCDERFLLDIMQQNMPDDAKDAAWLNGWTSYNKVAREIVLAEMANTTILEEGKIVAELRRLLPDKAGLFIGNSMPIRDVDTYFSQIDKKIKMLANRGANGIDGVVSSALGASVVFQPMFLLIGDLSFYHDMNGLLMAKKYKMNLTIVIVNNDGGGIFSFLPQANEPKYFESLFGTSTELDFRFAAAFYDADYHEAKSVDELEEAIDKASYHKGLDIIEVKTNRHENKANHQALEGHHHHHH | not failed
MSLTNSSKSFTKFMAASAVFTMGFLSVPTAGAEQTNQIANKPQAIQWHTNLTNERFTTIAHRGASGYAPEHTFQAYDKSHNELKASYIEIDLQRTKDGHLVAMHDETVNRTTNGHGKVEDYTLDELKQLDAGSWFNKKYPKYARASYKNAKVPTLDEILERYGPNANYYIETKSPDVYPGMEEQLLASLKKHHLLNNNKLKNGHVMIQSFSDESLKKIHRQNKHVPLVKLVDKGELQQFNDQRLKEIRSYAIGLGPDYTDLTEQNTHHLKDLGFIVHPYTVNEKADMLRLNKYGVDGVFTNFADKYKEVIKEGHHHHHH | not failed
MSLTRTQTYRATIESDIESYLKKAIPIRAPESVFEPMHHLTFAAPRTSASALCVAACELVGGDRSDAMAAAAAVHLMHVAAYTHENLPLTDGPMSKSEIQHKFDPNIELLTGDGIIPFGLELMARSMDPTRNNPDRILRAIIELTRVMGSEGIVEGQYHELGLNQLNDLELIEYVCKKKEGTLHACGAACGAILGGCDEDKIEKLRRFGLYVGTVQGLLGKNRSGFEGRIKELKELAVKELESFGGEKIELIRGVFELEHSLAGVEGHHHHHH | not failed
MSLTTRHTIGARLLLAFAFSTSLLTIVSLVAWGTWSRLDYQVAELLNQSVPKYNTSYVLETRSSEIRRRIQLIVSATSKVTLNQQYQRLQEDFTAIHAALASLPQNEQQAALQQGYTELRQTTQQINDLVSARIDVDRRLALFAEQLDWLHQDIGMELSPMRQELQWQLERGGAAQPQAQVMFQTINLIQTILDGETQAFLFVDELLKAKHLTQVDNGMRVLQYRLDELSRLSQPLFTQPSSIAYQQLLEEWRNVLRLEGDFQQSLRDRVVLTQKLESTSEQLQIQLDQQHTAIADLVANADALFVQVKGQTAQLVQEGNRVLLICFGLSIGLSLLLMYYFVHKRIVGRLHRLSESLDAIIHNDLSHPITVDGKDEIGALSEQLILYGKKVEEMERTNALSLINNTQASLITCDRYGQIESANPSAMATLRLESLAQPLTLWSCFAKHVQPKVGNULLLFDKKGNLIQKGAESLTLSLGNPEKPHYLRLYLRRYSQGLHDKIIVTITDVTDQEHANRLLEQRVKEKTQSLREKNRELQAEVEERQRAEAHLKKTQGELIQAAKMAVVGQTMTSLAHELNQPLSAMSAYLFSARLALEEAPQAQLATSLDHIENLTERMGKIVNSLRHFARKNSSDESLQPVRLNSVVEQALVLVQTKAKRQQIKLINTLPDDLMVMADALSLEQVLINLIVNGCDASTTFAQPWVKLIALGTEQGMQRIAVIDSGQGFEHEVVDKLFTPFTTTKEVGLGLGLSICQSLVEKMQGRIALASNLEKGAMVILELQQDEKYRTAD | failed
MSLTVVLIVDDHHLIRAGAKNLLEGAFSGMRVEGAETVSDALAFLEADNTVDLILLDVNLPDAEAIDGLVRLKRFDPSNAVALISGETDHELIRAALEAGADGFIPKSADPQVLIHAVSLILEGEIFLPRSYLQGGRMAEVATPLDEGHHHHHH | not failed
MSLVAARPLVLVVDDNAVNREALILYLKSRGIDAVGADGAEEARLYLHYQKRIGLMITDLRMQPESGLDLIRTIRASERAALSIIVVSGDTDVEEAVDVMHLGVVDFLLKPVDLGKLLELVNKELKIGEGHHHHHH | not failed
MSLVKKSSNVIAAVVSSVRTNFAQQILDGIQEEAHKNGYNLIIVYSGSADPEEQKHALLTAIERPVMGILLLSIALTDDNLQLLQSSDVPYCFLSMGFDDDRPFISSDDEDIGYQATNLLINEGHRQIGIAGIDQYPYTGRKRLAGYKKALKEANIAINQEWIKPGDYSYTSGEQAMKAFGKNTDLTGIIAASDMTAIGILNQASSFGIEVPKDLSIVSIDGTEMCKITRPQLTSISQDFFQMGVTGVQQIHQSVKNGSNRIVSQQFIPVNPVIRKSTARLGEGHHHHHH | not failed
MSLVNNFTVKKVRSSNLELLRLLSMFFVLVVHADFQALGMPDRTEMTILPLFSVFRIIIEAFAIVCVNSFVLLSGWFGINFHIKSLCNLLFQCAFFLIGIYTFTILIGIEPLSISGIKRCLMLTNNVWFVKCYLGMFIMAPILNAFVEKTDKRTFSTVLLSFFIFQTIYGWFSNGAPYFEKGYSAFSFMGLYLLARYVRIYQPSYTQWSKSKNLLMYISLSTFTALMLIITCYFDKVGYFCMFWTYTSPLVIAGALYLLLFFNRFAFQNKGINWIAASCFAVYLFHFFIWEYFMKPHIQQLAVTYNGISCLLVITGLLLTFFTAAILIDKIRLYIWNHFVSKYIS | failed
MSLWRLPMTLKTMTLAFAVTGLGVLAGSSPSVVQQRDGSQVVTPDEPKYNEDTGFYEYEKDGHKVQMNKDDVKTIEEVKLEHHHHHH | not failed
MSLYKQLLIAICLFVLIIFSGSFFVSLENSREQYNNQLHSHAQDAATALGLSLTPNIDDPAMVELMVSSIFDSGYFSSIRVRDLKTGNVTLERTASPDIPDVPLWFVQLVDLQPGAGEAIVMRGWEQAAKVEVVSHPMFAVTRLWRSSTATFLWLLGCGTLGVLIGALFLRRQLRPLDYIVDQSLAITRREFLSQPDLPNTPEFRRVAQAMNLMVSKLKTLFEEEAERSERLRQEAYQDPQTGLNNRRAFDMQFNDKLADEETAPGFLIMIRVQDLAGMNQRLGGQRTDALLASVGHILRKTQKQHTNTESLLARIRGGEFALFCPGLVDKEVYALIGELTRNIETLHLTGETDVSPVAQFGMVPFRPGDTAQSLFIQGDQALTRAESDTDTTAPYEIPLAGAEQVETDRHMWFNLLDPILEQERLQLFLQPVVACDDPSQVLHHKVLARIQDEQGNSIAAGRFLPWIQRFGWDTRLDQTMLREVLDYLRQHDGNLALSLSGTTVLNLHLLADLLAPLKHQPEVARRLILELDENQLPDSAQLETLIKLLNEHGCALGLQHFGGRFNMIGNLSQWGLAYLKVDGSYIRNIDQEGDKQMFIEALYRATNSIALPLIAERVETAGELKVLQEMGLQGAMGRLLGEPMPAVRA | failed
MSLYTFKELKRATKQDTVSLPKLKVALLGDTATQLLATAIKGEGILRNYNIELWEAEYNQVERQIMDPTSDYYQFEPDYTIIFHSTHKLLEKHSLVNSDLQNKLADDRLDFVRLLCEQGIGRVIYYNYPEIEDTIWGSYATKVQSSFTYQLTKLNYELMNISQAYPNFFICNLAGISAKYGRNFMFDSSVYVNTEIILSLDALPIISSRTIDIIAAIQGKFKKCLILDLDNTIWGGVVGDDGWENIQVGHGLGIGKAFTEFQEWVKKLKNRGIIIAVCSKNNEGKAKEPFERNPEMVLKLDDIAVFVANWENKADNIRTIQRTLNIGFDSMVFLDDNPFERNMVREHVPGVTVPELPEDPGDYLEYLYTLNLFETASFSEGHHHHHH | not failed
MSMESKSKRRSPPSSTLEEEVPGKTIHPEDPKITSKNFENPTKETSIQSPIKNSIKPSWNPEPKITRTSIWDIESAGGDSIQNDCQSECNVEDQGHEQEVTLETRIFSGTSDRIEPHRHYGVYLLRNRFDAIQLLTRNTSSSADDYGERRVISEYREMRCEFRVWSPFQSKLAAGIMGGVSDLHLQIGSKVLYLGAGFGRSVSHISDIVGDSGMVYAVEQIPWAGRQLTIMANRRSNIVPIVEDATMPYKYRYEVPACIDIIFADLPPSVLIRALMLNARHFLNPGGHFVAYLHSPTSQGVVFNKDSFAAERRLLKEKQLEPKEMVLLEPFKAGYAFVVGVYIRKDVSL | failed
MSMNDTYQPINCDDYDNLELACQHHLMLTLELKDGEKLQAKASDLVSRKNVEYLVVEAAGETRELRLDKITSFSHPEIGTVVVSES | failed
MSMNSEPTPAEAFFLEGNRLLAASECRAAEACFREALALAPDFAEAHANLGMLLDQEGMAAEAERQYRLALALNPRLGHTHSNLGVLLANQKRFEEAESAYLSAIELEPDSPAAWSNLGVLQACRKQEREAEESYRTALRLDPDYHRASFNLSYLLLRQGRFDEGWSLLESRNRRWFARLEEHLPCPRWRGEDLQGRSLLIGLEAGHGDMIQFCRYAPLLKDRGAARITLVCHVALKDLLKTLDGVDTVISFDEILPDDAWDFWTPAMSIPCYCRTRLDSIPARIPYLHADPGLAEQWAAMLEREWAGPEMRIGLAWKGNPHFENDGDRSLPHLKTLEPLGAVAGVRFFSLQKGAGEEEAAQPPAGLPVVNLMRHIAGFADTAALVANLDLVITVDTAVAHLAGALGTECWVLLPEYRTDWRWLTGRTDSPWYPGVMRLFRQPRVGDWETVVAEVGEALRLFAARPRSPRGTR | failed
MSMVVNSSDQAITMESLGISGHCDDVFCNELTATVIGEMTKRPTRLDIPIGVDGFVAPISSSADVTVTSREECREVEREGYEDTVNNEEISKPKSMKLLAHAGDDESIKRQENEDDDGRTTVDDDDGRGRINVSRLKALLMITTRE | failed
MSNCWKNVLVKPACTLLDALEIINDEALRVVLVVDESDSLLGVVTDGDIRRGLLRNLPLTADIAQVMNTTPYTAAIDTPRDELIAIMESNDILSIPLLDNGKVVGLETLHHALSTPVYENPVFIMAGGFGTRLRPLTDHCPKPMLKIGDKPILETVIRNFIKAGFINFYISTHYMPELIHQHFGDGSTLGVKITYVHEQSPLGTGGALGLLPKELPKDLPLIMMNGDVLTKVDFQRLLEFHTEHDADATMCVREYDYQIPYGVIKGEGNRITSMVEKPIQRFFVNAGIYVVSPVVIQSVPENHHIDMPTLLEQHMNKRNNVLMFPIHEYWLDIGRMDDFNRAQTDIYTLGL | failed
